Target: L-plastin EF construct (EF-hand headpiece domain, H5 region omitted) (human)
Experiment: SPR; EF construct immobilised by its sole cysteine (Cys42) on a CM5 chip by thiol coupling; peptides injected; BIAcore X100; 10 mM Tris-HCl pH 7.5, 150 mM KCl, 1 mM CaCl2, 0.005% Tween-20; 30 uL/min, contact 1 min, 25 °C

- Kd: 3.52 µM
Binder: Ac-STDVAKTFRKAINKKEGI-NH2 [synthetic H5 peptide representing the H5 region of LPL (residues 83-100)]

Source: article PMC5286426, “The Calcium-Dependent Switch Helix of L-Plastin Regulates Actin Bundling” (Scientific Reports, 2017)
